Assay results as given in patent publication CN111138528A.

Molecular target: BDBV GP (BDBV)
Experiment: ELISA, GP coated at 1 μg/mL, 5A8 from 10 μg/mL in 1:3 dilutions

B1: 单克隆抗体5A8 (antibody, V domains shown)
VH: EVQLLESGGGLVKPGGSLRLSCAASGFTFSDYYMNWIRQAPGKGLEWVSYISSSGKTIYYADSVKGRFTISRDNAKKSLYLQMNSLRAEDTAVYYCARDREIVISTTILLGSDHYAMDVWGQGTTVTVSS
VL: DIQMTQSPFTLSASVGDRVTITCRASQSINSYLNWYQQKPGKAPKLLIYSASSLQSGVPSRFSGSGSGTDFTLTISSLQPEDFAIYYCQQTYRTPYTFGQGTKVEIKT
With B1 as the binder, how does the EC50 read?
Its EC50 is 0.126 µg/mL.

And the fold weaker binding than to EBOV GP?
The fold weaker binding than to EBOV GP was 10 fold.
